Measurements: patent US20240043528A1, “NANOBODY-OGA FUSIONS AND USES THEREOF” (President and Fellows of Harvard College, priority 2020, published 2024)

What was measured:
GFP-Nup62 = assay: Deglycosylation of GFP-Nup62 co-expressed with OGA constructs (anti-EPEA enrichment, RL2 immunoblot); type: cell-based, human; details: co-expressed in HEK 293T cells
Method: (§1) HEK 293T cells were cultured in Dulbecco's Modified Eagle Medium (DMEM, Cat #11995073) supplemented with penicillin (50 μg/mL) and streptomycin (50 μg/mL) along with 10% (v/v) FBS. Transfections of all plasmids in this study were performed using TransIT-PRO® (Mirus Bio, Cat #MIR 5740) according to the manufacturer's instructions.
Glycoproteins Nup62, Sp1, JunB, c-Jun were subcloned into pcDNA3.1 vector with a GFP and a Flag-tag or a BC2 tag in the N-terminus and an EPEA tag in the C terminus respectively, unless otherwise noted. For all split OGA constructs with or without the fusion of nanobody GFP, N fragments were tagged with myc tag and C fragments were tagged with HA tag respectively. Human SP1 cDNA ORF plasmid (Cat #HG12024-G), human c-Fos cDNA ORF plasmid, and human OGT cDNA ORF cloned with a C-terminal His tag (Cat #HG11279-M) were purchased from Sino Biological. For subcloning, PCR fragments were amplified using Q5 High-Fidelity 2× Master Mix (New England BioLabs, Cat #M0492S). The vectors were double-digested and ligated to gel-purified PCR products by T4 ligation using T4 DNA ligase (New England BioLabs, Cat #M0202S) or by Gibson assembly using Gibson Assembly Master mix (New England BioLabs, Cat #E2611L). c-Fos was subcloned into a pcDNA3.1 vector with a 14-residue Ubc tag (amino acids: QADQEAKELARQIA (SEQ ID NO: 11)), Flag tag, and EPEA tag at the C terminus. All nanobody DNA fragments were synthesized by IDT.
After 36-48 h of transfection, cells were harvested and washed with PBS once. Cells were lysed with M-PER lysis buffer containing 1× protease inhibitor cocktail and 10 μM Thiamet-G unless otherwise noted. Protein concentrations were determined by the BCA assay kit (G-Biosciences, 786) on a multi-mode microplate reader FilterMax F3 (Molecular Devices LLC, Sunnyvale, CA).
For immunoprecipitation of proteins with the C-terminal EPEA tag, cell lysates with equal amounts of protein were diluted with PBS and incubated with C-tag affinity matrix (Thermo Scientific) for 1 h at room temperature, with end-to-end rotation, following the manufacturer's instructions. After washing three times with PBS buffer, the enriched proteins were eluted with SDS sample buffer and subjected to SDS-PAGE.
For immunoblotting analysis, proteins were transferred to a nitrocellulose membrane using iBlot (Thermo Scientific). Membranes were blocked with Tris buffered saline containing 0.1% Tween-20 and 5% BSA and incubated with the primary antibodies (1:1000 dilution) and the secondary antibodies (1:10,000 dilution) sequentially. Immunoblot images were captured by Azure Imager C600. Analysis of immunoblots was conducted with Fiji ImageJ. All IR fluorescence western blot images are converted into grayscale images by Fiji ImageJ. The unsaturated exposure of immunoblot images was used for quantification with the appropriate loading controls as standards. Statistical analysis of the data was performed with Prism 8, using data from at least three independent experiments.

OGT = molecular target: T1, OGT (Homo sapiens, UniProt O15294); assay: Co-immunoprecipitation of OGA constructs with His-tagged OGT; type: cell-based; details: OGT-His co-transfected in HEK 293T cells
T1 construct: host or cells: HEK 293T
T1 sequence (O15294 1-1046): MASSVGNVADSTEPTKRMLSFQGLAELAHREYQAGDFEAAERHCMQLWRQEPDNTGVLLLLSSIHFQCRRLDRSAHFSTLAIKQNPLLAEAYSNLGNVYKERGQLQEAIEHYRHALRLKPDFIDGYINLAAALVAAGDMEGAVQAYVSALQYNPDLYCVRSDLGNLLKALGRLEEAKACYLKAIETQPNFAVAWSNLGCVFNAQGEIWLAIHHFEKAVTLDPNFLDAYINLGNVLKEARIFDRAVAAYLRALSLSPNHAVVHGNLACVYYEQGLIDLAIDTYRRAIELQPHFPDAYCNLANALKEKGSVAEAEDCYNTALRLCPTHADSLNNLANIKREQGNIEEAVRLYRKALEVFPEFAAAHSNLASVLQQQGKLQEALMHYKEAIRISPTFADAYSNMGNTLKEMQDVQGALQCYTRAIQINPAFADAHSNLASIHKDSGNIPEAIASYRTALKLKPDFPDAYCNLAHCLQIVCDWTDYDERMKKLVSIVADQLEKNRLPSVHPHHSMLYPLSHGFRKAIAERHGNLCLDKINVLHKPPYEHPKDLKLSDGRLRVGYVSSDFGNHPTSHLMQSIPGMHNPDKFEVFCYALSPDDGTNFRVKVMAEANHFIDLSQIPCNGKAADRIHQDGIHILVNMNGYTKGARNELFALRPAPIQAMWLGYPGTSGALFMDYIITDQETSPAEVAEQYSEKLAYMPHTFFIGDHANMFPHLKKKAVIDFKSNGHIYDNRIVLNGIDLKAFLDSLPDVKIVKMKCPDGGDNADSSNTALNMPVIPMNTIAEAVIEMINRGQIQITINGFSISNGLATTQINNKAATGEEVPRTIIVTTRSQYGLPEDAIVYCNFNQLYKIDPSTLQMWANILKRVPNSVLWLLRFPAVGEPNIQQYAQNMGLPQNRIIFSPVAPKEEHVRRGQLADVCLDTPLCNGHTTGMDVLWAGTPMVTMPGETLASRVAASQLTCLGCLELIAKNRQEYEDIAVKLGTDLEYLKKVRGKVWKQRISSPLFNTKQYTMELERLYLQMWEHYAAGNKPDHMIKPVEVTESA
Method: For immunoprecipitation of proteins with His tag, cells were lysed in a buffer containing 50 mM Tris HCl pH 8.0, 150 mM NaCl, 1% Triton X-100, 5% glycerol, 1× protease inhibitor cocktail and 10 μM Thiamet-G on ice for 20 min. Cell lysates with equal amounts of protein were diluted with wash buffer (50 mM Tris HCl pH 8.0, 150 mM NaCl, 0.01% Tween-20) and incubated with pre-washed His-Tag Dynabeads (Invitrogen, 10103D) at room temperature for 20 min with mixing, following the manufacturer's instructions. After washed 4 times with wash buffer, the enriched proteins were eluted with elution buffer (300 mM Imidazole, 50 mM Tris HCl pH 8.0, 150 mM NaCl, 0.01% Tween-20) on a shaker for 10 min at room temperature.

GFP-Sp1 = assay: Deglycosylation of GFP-Sp1 co-expressed with OGA constructs (anti-EPEA enrichment, immunoblot); type: cell-based, human; details: co-expressed in HEK 293T cells
Method: as §1
Glycoproteins Nup62, Sp1, JunB, c-Jun were subcloned into pcDNA3.1 vector with a GFP and a Flag-tag or a BC2 tag in the N-terminus and an EPEA tag in the C terminus respectively, unless otherwise noted. For all split OGA constructs with or without the fusion of nanobody GFP, N fragments were tagged with myc tag and C fragments were tagged with HA tag respectively. […]
After 36-48 h of transfection, cells were harvested and washed with PBS once. […] Protein concentrations were determined by the BCA assay kit (G-Biosciences, 786) on a multi-mode microplate reader FilterMax F3 (Molecular Devices LLC, Sunnyvale, CA). […]
For immunoblotting analysis, proteins were transferred to a nitrocellulose membrane using iBlot (Thermo Scientific). […] All IR fluorescence western blot images are converted into grayscale images by Fiji ImageJ. The unsaturated exposure of immunoblot images was used for quantification with the appropriate loading controls as standards. […]

B1: split OGA (N2+C3): split OGA fragments N2 and C3 without nanobody (protein)
chain 1: MEQKLISEEDLAIAMVQKESQATLEERESELSSNPAASAGASLEPPAAPAPGEDNPAGAGGAAVAGAAGGARRFLCGVVEGFYGRPWVMEQRKELFRRLQKWELNTYLYAPKDDYKHRMFWREMYSVEEAEQLMTLISAAREYEIEFIYAISPGLDITFSNPKEVSTLKRKLDQVSQFGCRSFALLFDDIDHNMCAADKEVFSSFAHAQVSITNEIYQYLGEPETFLFCPTEYCGTFCYPNVSQSPYLRTVGEKLLPGIEVLWTGPKVVSKEIPVESIEEVSKIIKRAPVIWDNIHANDYDQKRLFLGPYKGRSTELIPRLKGVLTNPNCEFEANYVAIHTLATWYKSNMNGVRKDVVMTDSEDSTVSIQIKLENEGSDEDIETDVLYSPQMALKLALTEWLQEFGVPHQYSSR
chain 2: MAYPYDVPDYAAIAEKPLYTAEPVTLEDLQLLADLFYLPYEHGPKGAQMLREFQWLRANSSVVSVNCKGKDSEKIEEWRSRAAKFEEMCGLVMGMFTRLSNCANRTILYDMYSYVWDIKSIMSMVKSFVQWLGCRSHSSAQFLIGDQEPWAFRGGLAGEFQRLLPIDGANDLFFQPP
With B1 the “deglycosidase activity / O-GlcNAc modification level on GFP-Nup62” value (GFP-Nup62) was “limited substrate activity”, the “deglycosidase activity / O-GlcNAc modification level on GFP-Nup62” value (GFP-Nup62; listed as N2-C3 pair) was “significantly reduced activity” and the “interaction with OGT” value (OGT) was “unable to interact with OGT”. For the same molecule, the “deglycosidase activity / O-GlcNAc level on GFP-Sp1” value (GFP-Sp1) was “weak inherent deglycosidase activity”.
